Patent US20180155451A1 (published 2018)

T1: FcγRIIb extracellular domain with C-terminal His tag (human, UniProt P31994 43-217)
T1 construct: extracellular domain; also called FcgRIIb; 2b; not shown: His tag at the C terminus
T1 sequence (looked up): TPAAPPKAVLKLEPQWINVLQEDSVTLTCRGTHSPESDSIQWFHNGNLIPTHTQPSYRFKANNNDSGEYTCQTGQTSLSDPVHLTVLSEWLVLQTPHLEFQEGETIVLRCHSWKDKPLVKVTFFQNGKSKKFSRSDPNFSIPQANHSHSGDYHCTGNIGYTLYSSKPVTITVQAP


Tests used:
[1] = target: T1, FcγRIIb extracellular domain with …; assay: SPR (Biacore), captured antibody, FcγR as analyte; relative to GpH7-A5/GpH7-B3/GpL16-k0 = 100
Method: (§1) Analysis of interaction between objective antibody and the FcγR was carried out using Biacore T100 (GE Healthcare). HBS-EP+ (GE Healthcare) was used as the running buffer, and the measurement temperature was set to 25° C. Chips produced by immobilizing the antigen peptide by the amine coupling method to a Series S Sencor Chip CM5 (GE Healthcare), or alternatively, chips produced by allowing preliminarily biotinylated antigen peptides to interact with and immobilize onto a Series S Sensor Chip SA (certified) (GE Healthcare) were used. Antibodies of interest were captured onto an antigen peptide-immobilized chip, and allowed to interact to each FcγR diluted with running buffer. To regenerate and repeatedly use the chip, the antibodies captured on the chip were washed off by reacting 10 mM glycine-HCl, pH 1.5.
(§2) The FcγR-binding activity of each antibody was assessed primarily using as an indicator the FcγR-binding activity and dissociation constant for FcγR.

[2] = target: T2, FcγRIIIa extracellular domain with C-terminal His tag (human, UniProt P08637 17-208); assay: as above
T2 construct: extracellular domain; also called FcgRIIIa; 3a; not shown: His tag at the C terminus
T2 sequence (P08637 17-208): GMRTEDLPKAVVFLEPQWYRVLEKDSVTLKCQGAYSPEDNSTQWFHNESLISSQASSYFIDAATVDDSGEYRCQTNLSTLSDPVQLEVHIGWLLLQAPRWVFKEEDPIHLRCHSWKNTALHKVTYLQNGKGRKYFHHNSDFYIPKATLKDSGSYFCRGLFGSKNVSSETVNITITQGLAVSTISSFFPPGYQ
Method: as §1, §2

He/Con_2b (IIb binding) [1]	He/Con_3a (IIIa binding) [2]	Binder
312 % of HeCon Ab	46.7 % of HeCon Ab	GpH7-A5/GpH7-B3 variant P238_04F/GpL16-k0 (heterodimerized antibody, He Ab) (antibody, human IgG1, kappa, Anti-glypican-3 IgG1; the alteration is in the GpH7-B3 chain only; also called P238F) heavy 1: not shown heavy 2: not shown light: DIVMTQSPLSLPVTPGEPASISCQASESLVHSNRNTYLHWYLQKPGQSPQLLIYKVSNRFSGVPDRFSGSGSGTDFTLKISRVEAEDVGVYYCSQNTHVPPTFGQGTKVEIERTVAAPSVFIFPPSDEQLKSGTASVVCLLNNFYPREAKVQWKVDNALQSGNSQESVTEQDSKDSTYSLSSTLTLSKADYEKHKVYACEVTHQGLSSPVTKSFNRGEC
18.1 % of HeCon Ab	10.4 % of HeCon Ab	GpH7-A5/GpH7-B3 variant P238_11K/GpL16-k0 (heterodimerized antibody, He Ab) (antibody, human IgG1, kappa, Anti-glypican-3 IgG1; the alteration is in the GpH7-B3 chain only; also called P238K) heavy 1: not shown heavy 2: not shown light: DIVMTQSPLSLPVTPGEPASISCQASESLVHSNRNTYLHWYLQKPGQSPQLLIYKVSNRFSGVPDRFSGSGSGTDFTLKISRVEAEDVGVYYCSQNTHVPPTFGQGTKVEIERTVAAPSVFIFPPSDEQLKSGTASVVCLLNNFYPREAKVQWKVDNALQSGNSQESVTEQDSKDSTYSLSSTLTLSKADYEKHKVYACEVTHQGLSSPVTKSFNRGEC
80 % of HeCon Ab	27.8 % of HeCon Ab	GpH7-A5/GpH7-B3 variant P238_07I/GpL16-k0 (heterodimerized antibody, He Ab) (antibody, human IgG1, kappa, Anti-glypican-3 IgG1; the alteration is in the GpH7-B3 chain only; also called P238I) heavy 1: not shown heavy 2: not shown light: DIVMTQSPLSLPVTPGEPASISCQASESLVHSNRNTYLHWYLQKPGQSPQLLIYKVSNRFSGVPDRFSGSGSGTDFTLKISRVEAEDVGVYYCSQNTHVPPTFGQGTKVEIERTVAAPSVFIFPPSDEQLKSGTASVVCLLNNFYPREAKVQWKVDNALQSGNSQESVTEQDSKDSTYSLSSTLTLSKADYEKHKVYACEVTHQGLSSPVTKSFNRGEC
149 % of HeCon Ab	80.6 % of HeCon Ab	GpH7-A5/GpH7-B3 variant L235_15Y/GpL16-k0 (heterodimerized antibody, He Ab) (antibody, human IgG1, kappa, Anti-glypican-3 IgG1; the alteration is in the GpH7-B3 chain only; also called L235Y) heavy 1: not shown heavy 2: not shown light: DIVMTQSPLSLPVTPGEPASISCQASESLVHSNRNTYLHWYLQKPGQSPQLLIYKVSNRFSGVPDRFSGSGSGTDFTLKISRVEAEDVGVYYCSQNTHVPPTFGQGTKVEIERTVAAPSVFIFPPSDEQLKSGTASVVCLLNNFYPREAKVQWKVDNALQSGNSQESVTEQDSKDSTYSLSSTLTLSKADYEKHKVYACEVTHQGLSSPVTKSFNRGEC
76.9 % of HeCon Ab	59.1 % of HeCon Ab	GpH7-A5/GpH7-B3 variant L235_16H/GpL16-k0 (heterodimerized antibody, He Ab) (antibody, human IgG1, kappa, Anti-glypican-3 IgG1; the alteration is in the GpH7-B3 chain only; also called L235H) heavy 1: not shown heavy 2: not shown light: DIVMTQSPLSLPVTPGEPASISCQASESLVHSNRNTYLHWYLQKPGQSPQLLIYKVSNRFSGVPDRFSGSGSGTDFTLKISRVEAEDVGVYYCSQNTHVPPTFGQGTKVEIERTVAAPSVFIFPPSDEQLKSGTASVVCLLNNFYPREAKVQWKVDNALQSGNSQESVTEQDSKDSTYSLSSTLTLSKADYEKHKVYACEVTHQGLSSPVTKSFNRGEC

Further lines, the binder ahead of its results:

Binder	He/Con_2b (IIb binding) [1]	He/Con_3a (IIIa binding) [2]
GpH7-A5/GpH7-B3 variant G237_18N/GpL16-k0 (heterodimerized antibody, He Ab) (antibody, human IgG1, kappa, Anti-glypican-3 IgG1; the alteration is in the GpH7-B3 chain only; also called G237N) heavy 1: not shown heavy 2: not shown light: DIVMTQSPLSLPVTPGEPASISCQASESLVHSNRNTYLHWYLQKPGQSPQLLIYKVSNRFSGVPDRFSGSGSGTDFTLKISRVEAEDVGVYYCSQNTHVPPTFGQGTKVEIERTVAAPSVFIFPPSDEQLKSGTASVVCLLNNFYPREAKVQWKVDNALQSGNSQESVTEQDSKDSTYSLSSTLTLSKADYEKHKVYACEVTHQGLSSPVTKSFNRGEC	180 % of HeCon Ab	20.3 % of HeCon Ab
GpH7-A5/GpH7-B3 variant L234_09D/GpL16-k0 (heterodimerized antibody, He Ab) (antibody, human IgG1, kappa, Anti-glypican-3 IgG1; the alteration is in the GpH7-B3 chain only; also called L234D) heavy 1: not shown heavy 2: not shown light: DIVMTQSPLSLPVTPGEPASISCQASESLVHSNRNTYLHWYLQKPGQSPQLLIYKVSNRFSGVPDRFSGSGSGTDFTLKISRVEAEDVGVYYCSQNTHVPPTFGQGTKVEIERTVAAPSVFIFPPSDEQLKSGTASVVCLLNNFYPREAKVQWKVDNALQSGNSQESVTEQDSKDSTYSLSSTLTLSKADYEKHKVYACEVTHQGLSSPVTKSFNRGEC	150 % of HeCon Ab	117 % of HeCon Ab
GpH7-A5/GpH7-B3 variant L235_04F/GpL16-k0 (heterodimerized antibody, He Ab) (antibody, human IgG1, kappa, Anti-glypican-3 IgG1; the alteration is in the GpH7-B3 chain only; also called L235F) heavy 1: not shown heavy 2: not shown light: DIVMTQSPLSLPVTPGEPASISCQASESLVHSNRNTYLHWYLQKPGQSPQLLIYKVSNRFSGVPDRFSGSGSGTDFTLKISRVEAEDVGVYYCSQNTHVPPTFGQGTKVEIERTVAAPSVFIFPPSDEQLKSGTASVVCLLNNFYPREAKVQWKVDNALQSGNSQESVTEQDSKDSTYSLSSTLTLSKADYEKHKVYACEVTHQGLSSPVTKSFNRGEC	118 % of HeCon Ab	79.1 % of HeCon Ab
GpH7-A5/GpH7-B3 variant G237_20W/GpL16-k0 (heterodimerized antibody, He Ab) (antibody, human IgG1, kappa, Anti-glypican-3 IgG1; the alteration is in the GpH7-B3 chain only; also called G237W) heavy 1: not shown heavy 2: not shown light: DIVMTQSPLSLPVTPGEPASISCQASESLVHSNRNTYLHWYLQKPGQSPQLLIYKVSNRFSGVPDRFSGSGSGTDFTLKISRVEAEDVGVYYCSQNTHVPPTFGQGTKVEIERTVAAPSVFIFPPSDEQLKSGTASVVCLLNNFYPREAKVQWKVDNALQSGNSQESVTEQDSKDSTYSLSSTLTLSKADYEKHKVYACEVTHQGLSSPVTKSFNRGEC	193 % of HeCon Ab	19.7 % of HeCon Ab
